Laboratory results taken from the nanobody polyreactivity screen of Harvey et al. (2022).

Assay: yeast display, Sf9 membrane polyspecificity reagent, FACS + sequencing; frameworks hold sequencing errors
Procedure, shortened: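 A nanobody's polyreactivity label depends on the gate it was sorted from. Yeast display cells were stained with 10% biotinylated, detergent-solubilized Sf9 membrane reagent for 1 hour at 4 °C, enriched on streptavidin microbeads and sorted by FACS. The low and high (top ~1%) gates were set on anti-HA fluorescence for expression and streptavidin fluorescence for reagent binding.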

Sequence | polyreactivity (PSR sort gate)
QVQLVESGGGLVQAGGSLRLSCAASGFTFWYYVMGWYRQAPGKERELVAAITSSGDSTYYADSVKGRFTISRDNAKNTVYLQMNSLKPEDTAVYYCAAQRYPFERDYWGQCTQVTVSS | high polyreactivity
QVQLVESGGGLVQAGGSLRLSCAASGFTFYANAKGWYRQAPGKERELVAAIDQSGTSTNYADSVKGRFTISRDNAKNTVYLQMNSLKPDDTAVYYCAADSSFYYYPLILFWGDYWGQGTQVTVSS | low polyreactivity
QVQLVESGGGLVQAGGSLRLSCAASGFTFYAYAMGWYRPAPGKERELVAGISWSGGSTYYADSVKGRFTISRDNAKNTVYLQMNSLKPEDTAVYYCAAYSIAELWEYYYWGQGTQVTVSS | low polyreactivity
QVQLVESGGGLVQAGGSLRLSCAASGFTFYDNAMGWYRQAPGKERELVAAITSNGVNTHYADSVKGRFTISRDNAKNTVYLQMNSLKPEDTAVYYCAADRDPEVTYQKYEYWGQGTQVTVSS | low polyreactivity
QVQLVESGGGLVQAGGSLRLSCAASGFTFYDYAMGWYRQAPGKERELVAAISSGTSTYYADSVKGRFTISRDNAKNTVYLQMNSLKPEDTAVYYCAAAGNRPWSITPVRKRYGYNYWGQGTQVTVSS | high polyreactivity
QVQLVESGGGLVQAGGSLRLSCAASGFTFYDYAMGWYRQAPGKERELVAVITRRGGSTYYADSVKRRFTISRDNAKKTVDLQMNSLKPEDTAVYDCAADWRGWSFVRGDDYWGHGTQVTVSS | high polyreactivity
QVQLVESGGGLVQAGGSLRLSCAASGFTFYDYSMGWYRQAPGTERELVAASSDSGGITYYADSVKGRFTISRDNAKNTVYLQMNRLKPEDTAVYYCAADFATPGPEYDYWGQGTQVTVSS | low polyreactivity
QVQLVESGGGLVQAGGSLRLSCAASGFTFYFYAMGWYRQAPGKERELVAAISRGGSTTYADSVKGRFTISRDNAKNTVYLQMNSLIPEDTAVSYCKADIYTWFQIGGYQYDYWGQGTQVTVSS | low polyreactivity
QVQLVESGGGLVQAGGSLRLSCAASGFTFYGNAMGWYSQAPGKERELVAAISSGGSTNYADSVKGRFTISRDNAQNTVSLQMNSLKPEDTAVYYCAASSPRQVSFPYASIGFDYWGQGTQVTVSS | low polyreactivity
QVQLVESGGGLVQAGGSLRLSCAASGFTFYGYAMAWYRQAPGTERELVAAITRRGGNTYYADSVKGRFTISRDNAKNTVYLQMNSLKPEDTAVYYCNAVLRYGHGPYQKGDYWGQGSQVTVSS | high polyreactivity
QVQLVESGGGLVQAGGSLRLSCAASGFTFYGYAMGWYRQAPGKERELVAAITSGGITNYADSVKGRFTISRDNAKNTVYLQMNSLKPEDTAVYYCNVKRRVSGYYGYKYYYWGQGTQVTVSS | high polyreactivity
QVQLVESGGGLVQAGGSLRLSCAASGFTFYGYAMVWYRQAPGKERELLAAITFRGDRTYYADSVKGRFTISRDIAKNTVYLQMNSLKPEDTAVYYCAAERPSGWYSYLSLYIVRRGYWGQGTQVTVSS | low polyreactivity
QVQLVESGGGLVQAGGSLRLSCAASGFTFYHNALGWYRQAPGKERELVATITARGGRTYYADSVKGRFTISRDNAKNTVYLQMNSLKPEDTAVYYCNVKASRGYTYEYDYWGQGTQVTVSS | high polyreactivity
QVQLVESGGGLVQAGGSLRLSCAASGFTFYHYAMGWYRPAPGKERELVAAISKSGGRTYYADSVKGRFTISRDNAMYTVYLQMNSLKPEDTAVYYFNAAYRTTSYENDYWGQGTQVTVSS | low polyreactivity
QVQLVESGGGLVQAGGSLRLSCAASGFTFYHYAMGWYRQAPGKEREFVAAISASGGSTYYADSVKGRFTISRDNAKNTVYLQMNSLKPEDTAVYYCNARYYYFSVRYKYDFNYWGQVTQVTVSS | high polyreactivity
QVQLVESGGGLVQAGGSLRLSCAASGFTFYHYAMGWYRQAPGKERELGAAISRSGGSTYYADSVKGRFTISRDNAKNTVYLQMNSLKPEDTAVYYCAKVLRAKNSFDYWGQGTQVTVSS | high polyreactivity
QVQLVESGGGLVQAGGSLRLSCAASGFTFYIYAMGWYRQAPGKERELVAAITGSGGRTYYADSVKGRFTISRDTAKNTVYLQMNSLKPEDTAVYYCAADKYRRGLAGAVARVNYWGQGTQVTVSS | high polyreactivity
QVQLVESGGGLVQAGGSLRLSCAASGFTFYIYAMGWYRQAPGKERELVAGIDYSGGSTYYADSVKGRFTISRDNAKNTVYLQMNSLKPEDTAVYYCARYGPYQSSYHYDYWGQGTQVTVSS | high polyreactivity
QVQLVESGGGLVQAGGSLRLSCAASGFTFYIYAMGWYRQAPGKERELVARISSGGRTYYADSVKGRFTISRDNAKNTVYLQMNRLKPEDTAVYDCHFWYGSWGQGTQVTVSS | low polyreactivity
QVQLVESGGGLVQAGGSLRLSCAASGFTFYIYAMGWYRQAPGKERELVARISSGGRTYYADSVKGRFTISRDNAKNTVYLQMNSLKPEDTAVFDCHFWYGSWGQGTQVTVSS | low polyreactivity
QVQLVESGGGLVQAGGSLRLSCAASGFTFYKNAMGWYRQAPGKERELVAAITSSGGSTYYADSVKGRFTISRDNAKNTVYLQMNSLKPEDTAVYYCAARASRPRFGYWGQGTQVTVSS | high polyreactivity
QVQLVESGGGLVQAGGSLRLSCAASGFTFYKNTMGWYRQAPGKERELVAAISSSGSSTYYADSVKGRFTISRDNAKNTVYLQMNSLKPEDTAVYYCAAVYRSWTSYNGRNYWGQGTQVTVSS | high polyreactivity

Sequence | polyreactivity (PSR sort gate)
QVQLVESGGGLVQAGGSLRLSCAASGFTFYKYAMGWYRQAPGKERELVAAINWSGGSTYYADSVKGRFTISRDNAKNTVYLQMNSLKPEDTAVYYCAAERGTTYAYDYWGQGTQVTVSS | high polyreactivity
QVQLVESGGGLVQAGGSLRLSCAASGFTFYKYAMGWYRQAPGKERELVATISWSGARTYYADSVKGRFTISRDNAKNTVYLQMNSLKPEDTAVYYCNARRAYRWKPYTGSAGMDYWGQGTQVTVSS | high polyreactivity
QVQLVESGGGLVQAGGSLRLSCAASGFTFYKYVMGWYRQAPGKERELVAAITQGGGSTYYADSVKGRFTISRDNAKNTVYLQMNSLKPEDTAVYYCNARNGYGIGYWGQGTQVTVSS | high polyreactivity
QVQLVESGGGLVQAGGSLRLSCAASGFTFYLYAMGWYRQAPGKERELVAAINSGSSTYYADSVKGRFTISRDNAKNTVYLQMNSLKPEDTAVYYCATDTDRTMDYWGQGTQVTVSS | low polyreactivity
QVQLVESGGGLVQAGGSLRLSCAASGFTFYLYAMGWYRQAPGKERELVAAINSGSSTYYADSVKGRFTISRDNAKNTVYLQMNSLNPEDTAVYYCATDTDRTMDYWGQGTQVTVSS | low polyreactivity
QVQLVESGGGLVQAGGSLRLSCAASGFTFYLYAMGWYRQAPGKERELVAAITGRGTRTYYADSVKGRFTISRDNAKNTVYLQMNSLKPEDTAVYYCATGGANVDGDAYDYWGQGTQVTVSS | high polyreactivity
QVQLVESGGGLVQAGGSLRLSCAASGFTFYLYAMGWYRQAPGKERELVAASTWSGGRTYYADSVKGRFTISRDNAKNTVYLQMNSLKPEDTADYYCAVDGFRGRSHGANDFWGQGTQVTVSS | high polyreactivity
QVQLVESGGGLVQAGGSLRLSCAASGFTFYLYTMGWYLQAPGKERELVATITSDGGTNYADSVKGRFTISRDNAKNTVYLQMNSLKPEDTAVYYCNAASRRGSRKQAKYDYWGQGTQVTVSS | low polyreactivity
QVQLVESGGGLVQAGGSLRLSCAASGFTFYPYAMGWYRQAPGKERELVARITWSGGSTSYADSVKGRFTISRDNAKNTVYLQMNSLKPEDTAVYYCSKAYHHSEFDYWGLGTQVTVSS | high polyreactivity
QVQLVESGGGLVQAGGSLRLSCAASGFTFYQYAMGSYRQAPGKESEFVATISSGGSTYYADSVKGRFTISRDNAKNTFYLQMNSLIPEDTAVYYCAKVDFIVGYYYWGQGTQVTVSS | low polyreactivity
QVQLVESGGGLVQAGGSLRLSCAASGFTFYRNAMGWYRPAPGKERELVAAISGRGGGTYYADSVKGRFTISRDNAKNTVYLQMNSLKPEDTAVYYCNARLSWSAFGYWGQGTQVTVSS | high polyreactivity
QVQLVESGGGLVQAGGSLRLSCAASGFTFYRNAMGWYRQAPGKERELVAAITRAGSTYYADSVKGRFTISRDNAKNTVYLQMNSLKPEDTAVYYCFDMSNRYAVRYDYWGQGTQVSVSS | high polyreactivity
QVQLVESGGGLVQAGGSLRLSCAASGFTFYRNARGWYRQAPGKERELVAAISISGGSTYYADSVKGRFTISRDNAKNTVYLQMNSLKPEDTAVYYCAAYYYRDRYSRVKVTYWGQGTQVTVSS | high polyreactivity
QVQLVESGGGLVQAGGSLRLSCAASGFTFYRNVMGWYRQAPGKERELVAAISSRGGSTYYADSVKGRFTISRDNAKNTVYLQMNSLKPEDTAVYYCNKARYTVISYDEYDYWGQGTQVTVSS | high polyreactivity
QVQLVESGGGLVQAGGSLRLSCAASGFTFYRYAMGCYRQAPGKERELVAAITSSGGNTYYADSVKGRFTISRDNGKNTVYLQMNSLKPEDTAVYYCAKYTRIRFEYEYWGLGTQVTVSS | high polyreactivity
QVQLVESGGGLVQAGGSLRLSCAASGFTFYRYAMGWYRHAPGKERELVAAITRSGSRTYYADSVKGRFTISRDNAKNTVYLQMNSLKPEDTAVYYFNTDGGDHPTARYGYWGQVTQVTVSS | high polyreactivity
QVQLVESGGGLVQAGGSLRLSCAASGFTFYRYAMGWYRPAPGKERELVAAISKSGGTTFYADSVKGRFTISRDNAKNTVYLQMNSLKPEDTEVYYCAVDVPYVQSYIPDPPNVYYWGQGTQVTVSS | high polyreactivity
QVQLVESGGGLVQAGGSLRLSCAASGFTFYRYAMGWYRQAPGKERELVAAISTSGGSTYYADSVKGRFTISRDNAKNTVYLQMNSLKPEDTAVYYCAASYYGKRDRAGPYYSFDYWGQGTQVTVSS | high polyreactivity
QVQLVESGGGLVQAGGSLRLSCAASGFTFYRYAMGWYRQAPGKERELVAAITWSGGATYYADSVKGRFTISRDNAKNTVYLQMNSLKPEDTAVYYCAADIYDGGFDYWGQGTQVTVSS | low polyreactivity
QVQLVESGGGLVQAGGSLRLSCAASGFTFYRYAMGWYRQAPGQEREVVAAIRKSGGSTYYADSVKGRFTISRDNAKTTVYLQMNSLKPEDTAVYYCAKRYATDGFGYWGQGTQVTVSS | high polyreactivity
QVQLVESGGGLVQAGGSLRLSCAASGFTFYRYDMGWYRQAPGKERELVAAITNNGGKTYYADSVKGRITISRDNAKYSDYLQMNSLKPVDTAVYYSAAEFYWGDLSYWGQGTQVTVSS | high polyreactivity
